What was measured:
[1] = target: Salmonella typhimurium sigma^70, purified (Salmonella typhimurium) (UniProt P0A2E3)
[2] = target: E. coli sigma^70 (E. coli) (UniProt P00579)
[3] = target: E. coli core RNA polymerase (E. coli) (UniProt P0A7Z4)

Substance	RNA polymerase activity, [^3 H]UTP (nmol), after adding S. typhimurium sigma^70 to E. coli RNA polymerase inhibited by AsiA ([^3 H]UTP (nmol)) [1]	RNA polymerase activity, [^3 H]UTP (nmol), with sigma^70 preincubated with AsiA ([^3 H]UTP (nmol)) [1]	E. coli RNA polymerase assay (sigma^70 dependent transcription on T4 phage DNA) [2] [% inhibited]	RNA polymerase activity, [^3 H]UTP (nmol) ([^3 H]UTP (nmol)) [3]
AsiA protein (10 kDa anti-sigma^70 factor of bacteriophage T4), purified	3	0.98	> 80	
Salmonella typhimurium sigma^70, purified (from UniProt P0A2E3)				2.3
